Results reported in publication PMC9891255.

Assays:
UPF2S [1] = target: T1, UPF2S (Homo sapiens, UniProt Q9HAU5 761-1227); experiment: analytical SEC
UPF2-U1BD = UPF2-U1BD (Homo sapiens, UniProt Q9HAU5 1105-1227); experiment: fluorescence anisotropy
UPF2S [2] = target: T1, UPF2S; experiment: fluorescence anisotropy

T1 sequence (Q9HAU5 761-1227): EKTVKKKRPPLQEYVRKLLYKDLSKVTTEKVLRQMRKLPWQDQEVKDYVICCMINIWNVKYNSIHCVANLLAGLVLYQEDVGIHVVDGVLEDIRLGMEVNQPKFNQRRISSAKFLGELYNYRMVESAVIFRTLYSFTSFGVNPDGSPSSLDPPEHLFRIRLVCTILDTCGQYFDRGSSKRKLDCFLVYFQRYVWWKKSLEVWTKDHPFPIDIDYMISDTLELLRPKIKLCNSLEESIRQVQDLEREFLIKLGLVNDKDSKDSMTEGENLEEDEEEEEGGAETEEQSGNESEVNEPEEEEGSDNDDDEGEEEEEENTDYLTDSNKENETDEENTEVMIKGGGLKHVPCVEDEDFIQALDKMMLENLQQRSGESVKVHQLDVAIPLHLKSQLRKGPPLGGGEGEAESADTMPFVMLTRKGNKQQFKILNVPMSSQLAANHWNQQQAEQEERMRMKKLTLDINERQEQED
UPF2-U1BD, sequence (Q9HAU5 1105-1227): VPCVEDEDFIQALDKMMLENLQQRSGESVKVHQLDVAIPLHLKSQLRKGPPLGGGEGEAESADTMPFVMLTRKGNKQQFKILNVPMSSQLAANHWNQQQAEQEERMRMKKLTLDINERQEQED

| Binder | binding result (UPF2S [1]) | binding result (UPF2-U1BD) | Kd (UPF2S [2]) [nM] |
| --- | --- | --- | --- |
| UUUUUUUUUUUUUUU (ssRNA) [U15 RNA] | no binding | – | – |
| UUUUUUUUUUUU (ssRNA) [U12 RNA] | – | no binding | ~600 |
